Data reported in patent US20210017226A1, “METHOD OF GENERATING INTERACTING PEPTIDES” (Peption, LLC, priority 2017, published 2021).
Ends that are not written are not given here.

Experiments:
[1] = target: T1, PTD12 (Sp-C9_CAA813-821), synthetic Cas9 target peptide […] (Streptococcus pyogenes); test: dot blot densitometry
[2] = target: T1, PTD12 (Sp-C9_CAA813-821), synthetic …; test: dot blot densitometry, same amount of purified proteins

B1: C9-813-CAA4 (tetramer, parallel-linker-antiparallel-linker-parallel-linker-antiparallel), recombinan (designed binder)
chain: MHHHHHHLLSVEVQQLCYPENLEYLFIEKLRSEAEGNGTIDFELLQVDVILLKTGEVNNLEQIKIRLF
- fold stronger interaction than the monomers (C9-813-92P, C9-813-93P) [1]: 1.5 fold

Binder: LLQVDVILLCYPENLEQIKIRLFGSGSHHHHHH (designed binder, also: dimer) [PTD14 (Sp-C9_CAA813-821PAPH), synthetic His-tagged CAAP oligopeptide dimer]
- fold stronger interaction than the monomer PTD13 [1]: 2 fold
- fold stronger interaction than the sAb monomer PTD13 [1]: 2 fold

Binder: MHHHHHHELLLSVEVQQLCYPENLEYLFIEKL (designed binder, not shown: small tags and cut ends; large carriers) [C9-813-CAA2 (dimer, parallel-linker-antiparallel), recombinant CAAP oligopeptide-AP fusion protein]
- fold stronger interaction than C9-813-92P or C9-813-93P (monomers) [2]: 2.5 fold
- fold stronger interaction than C9-813-CAA4 (tetramer) [2]: 1.5 fold
